Source: IntAct's records for PubMed 17974954

B1: Tyrosine-protein phosphatase non-receptor type 1 (Homo sapiens), P18031 (parent)
chain: MEMEKEFEQIDKSGSWAAIYQDIRHEASDFPCRVAKLPKNKNRNRYRDVSPFDHSRIKLHQEDNDYINASLIKMEEAQRSYILTQGPLPNTCGHFWEMVWEQKSRGVVMLNRVMEKGSLKCAQYWPQKEEKEMIFEDTNLKLTLISEDIKSYYTVRQLELENLTTQETREILHFHYTTWPDFGVPESPASFLNFLFKVRESGSLSPEHGPVVVHCSAGIGRSGTFCLADTCLLLMDKRKDPSSVDIKKVLLEMRKFRMGLIQTADQLRFSYLAVIEGAKFIMGDSSVQDQWKELSHEDLEPPPEHIPPPPRPPKRILEPHNGKCREFFPNHQWVKEETQEDKDCPIKEEKGSPLNAAPYGIESMSQDTEVRSRVVGGSLRGAQAASPAKGEPSLPEKDEDHALSYWKPFLVNMCVATVLTAGAYLCYRFLFNSNT

Variants of: B1
Settings: with src_human SRC

Variant	effect of a mutation on the interaction
C215S	disrupting interaction
